These binders were tested against T1, recombinant human TLR4/MD2 (rhTLR4/MD2), R&D Systems cat no: 3146-TM/CF (human, UniProt O00206 24-631; Q9Y6Y9 17-160, limits assumed) (assay: ELISA: TLR coated at 2 ug/ml, periplasmic extract of the clone, anti-VHH detection, OD against no-Nanobody control).
T1 construct: Bought protein, coated on ELISA plates
T1 sequence (O00206 24-631 limits assumed, chain 1 of 2): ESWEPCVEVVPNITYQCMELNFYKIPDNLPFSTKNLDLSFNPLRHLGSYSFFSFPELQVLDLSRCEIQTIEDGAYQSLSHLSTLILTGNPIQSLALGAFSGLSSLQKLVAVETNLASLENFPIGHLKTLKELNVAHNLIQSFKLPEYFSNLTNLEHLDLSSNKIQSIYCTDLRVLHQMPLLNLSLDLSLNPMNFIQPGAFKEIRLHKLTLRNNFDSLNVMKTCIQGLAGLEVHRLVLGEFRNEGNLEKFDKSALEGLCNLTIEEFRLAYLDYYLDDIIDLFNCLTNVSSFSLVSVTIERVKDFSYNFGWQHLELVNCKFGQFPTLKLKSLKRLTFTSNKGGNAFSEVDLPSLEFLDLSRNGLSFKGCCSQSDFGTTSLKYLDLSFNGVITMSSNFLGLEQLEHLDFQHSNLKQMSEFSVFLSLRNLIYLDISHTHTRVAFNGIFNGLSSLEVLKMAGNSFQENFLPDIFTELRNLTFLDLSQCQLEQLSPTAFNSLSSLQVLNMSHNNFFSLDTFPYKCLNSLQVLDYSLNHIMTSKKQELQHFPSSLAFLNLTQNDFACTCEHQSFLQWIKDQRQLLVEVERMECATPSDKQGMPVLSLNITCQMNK
T1 sequence (Q9Y6Y9 17-160 limits assumed, chain 2 of 2): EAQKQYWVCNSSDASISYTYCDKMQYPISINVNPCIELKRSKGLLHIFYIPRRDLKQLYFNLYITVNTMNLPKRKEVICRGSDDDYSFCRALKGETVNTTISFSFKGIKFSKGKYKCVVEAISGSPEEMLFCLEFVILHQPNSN

Row | Binder | binding result
1 | 107-H8 (VHH, not shown: C-terminal c-myc tag and (His)6 tag coded by the vector) VHH: EVQLVESGGGLVQAGGSLRLSCVASRGTLNNNPMAMGWFRRAPGKEREFVASIDWSGRSTYYADSVKGRFTISRDNAKNTVWLQINSLEPEDTSVYFCASRREYYTGISIVESDYPYWGQGTQVTVSS | binds
2 | 133-H9 (VHH, not shown: C-terminal c-myc tag and (His)6 tag coded by the vector) VHH: EVQLVESGGGLVQPGGSLRLSCAASGSIFSINDMGWFRQAPGKEREHVALIRIKDGSIYYADSVKGRFTISRDNAKNTVYLQMNSLKPEDTAVYYCAAKTGTSFVYWGQGTQVTVSS | binds
3 | 133-E12 (VHH, not shown: C-terminal c-myc tag and (His)6 tag coded by the vector) VHH: EVQLVESGGGLVQPGGSLRLSCAASGSIFSISDMGWFRQAPGKEREHVALIRIKDGSIYYADSVKGRFTISRDNAENTVYLQMNSLRPEDTAVYYCGAKTGTSFVYWGQGTQVTVSS | binds
4 | 107-H7 (VHH, not shown: C-terminal c-myc tag and (His)6 tag coded by the vector) VHH: EVQLVESGGGLVQPGGSLRLSCAASGSIFSINDMGWFRQAPGKEREHVALIRIKDGSIYYADSVKGRFTISRDNAKNTVYLQMNSLRPEDTAVYYCGAKTGTSFVYWGQGTQVTVSS | binds
5 | 133-F8 (VHH, not shown: C-terminal c-myc tag and (His)6 tag coded by the vector) VHH: EVQLVESGGGLVQPGGSLRLSCAASGSIFSINDMGWFRQAPGKEREHVALIRFKDGSIYYADSVKGRFTISRDNAKSTVYLQMNSLKPEDTAVYYCAAKTGTSFVYWGQGTQVTVSS | binds
6 | 133-F12 (VHH, not shown: C-terminal c-myc tag and (His)6 tag coded by the vector) VHH: EVQLVESGGGLVQPGGSLRLSCAASGSIFSINDMGWFRQAPGKEREHVALIRFKDGSIYYADSVKGRFTISRDNAKNTVYLQMNSLKPEDTAVYYCAAKTGTSFVCWGQGTQVTVSS | binds
7 | 133-A1 (VHH, not shown: C-terminal c-myc tag and (His)6 tag coded by the vector) VHH: EVQLVESGGGLVQAGESLRLSCVASGISISTEVMGWYRQAPGKQGESVAIIKTDGSTYYPDSVKGRFAISRDNAKNTVYLAMNSLKLEDTGVYYCIIAGRGRGQGTQVTVSS | binds
8 | 133-H4 (VHH, not shown: C-terminal c-myc tag and (His)6 tag coded by the vector) VHH: EVQLVKSGGGLVQAGESLRLSCVASGISISTEVMGWYRQAPGKQGESVAIIKTDGSTYYPDSVKGRFAISRDNAKNTVYLQMNSLKLEDTGVYYCVIPGRGPGQGTQVTVSS | binds
9 | 133-H5 (VHH, not shown: C-terminal c-myc tag and (His)6 tag coded by the vector) VHH: EVQLVESGGGLVQAGESLRLSCVVSGISISTKVMGWYRQAPGKQGESVAIIKTDGSTYYPDSVKGRFAISRDNAKNTVYLQMNSLKVEDTGVYYCIITGWGRGQGTQVTVSS | binds
10 | 107-E9 (VHH, not shown: C-terminal c-myc tag and (His)6 tag coded by the vector) VHH: EVQLVESGGGLVQAGGSLRLSCVASGRTLSSVNMGWFRQAPGKERDIVARISPSSVSTYYAESVKGRFTISRDNAKNTVYLQMNSLRPEDTGVYYCVADSPGGRSYEYWGQGTQVTVSS | binds
11 | 107-G9 (VHH, not shown: C-terminal c-myc tag and (His)6 tag coded by the vector) VHH: EVQLVESGGGLVQAGGSLRLSCVASGRTLSTVNMGWFRQAPGKERDIVARISPSSVSTYYSESVKGRFTISRDNAKNTVYLQMNSLRPEDTAVYYCVADSPGGRSYEYWGQGTQVTVSS | binds
12 | 133-H11 (VHH, not shown: C-terminal c-myc tag and (His)6 tag coded by the vector) VHH: EVQLVESGGGLVQAGGSLRLSCVASGRSLSTVNMGWFRQAPGKERDIVARISGSSISTYYAESVRGRFTISRDNAKNTVYLQMNSLRPEDTAVYYCVADSPGGRSYEFWGQGTQVTVSS | binds

What follows are binders tested against T2, recombinant human TLR3, R&D Systems cat no: 1487-TR (human, UniProt O15455 27-700, limits assumed) in the same assay as above.
T2 construct: Bought protein, coated on ELISA plates; also called hTLR3

Row | Binder | binding result
13 | 132-A12 (VHH, not shown: C-terminal c-myc tag and (His)6 tag coded by the vector) VHH: EVQLVESGGGLVQAGGSLRLSCAASGRNFRRNSMGWYRLTSGKQREMVARISNGGTTVYADSVKGRFTISRDNAKNTVYLQMNSLKFEDTAVYYCNAGDYTDSMYWGQGTQVTVSS | binds
14 | 132-F7 (VHH, not shown: C-terminal c-myc tag and (His)6 tag coded by the vector) VHH: EVQLVESGGGLVQAGGSLRLSCAASGNTFSFNVMGWYRQAPGKQRELVTIIDNGGTTNYADSVKGRFTISRDNAKNTVYLQMNSLKPEDTARYYCHARRGGTLYILGDSNYWGQGTQVTVSS | binds
15 | 132-B8 (VHH, not shown: C-terminal c-myc tag and (His)6 tag coded by the vector) VHH: AVQLVESGGGLVQAGGSLRLSCAASGNTFSINVMGWYRQAPGKQRDLVTIIDDGGTTNYADSVKGRFTISRDNAKNTVYLQMNSLKPEDTARYFCHARRGGNAYTLGESNYWGQGTQVTVSS | binds
16 | 132-E10 (VHH, not shown: C-terminal c-myc tag and (His)6 tag coded by the vector) VHH: EVQLVESGGGLVQAGGSLRLSCAASGNTFSINVMGWYRQAPGKQRELVTIIDNGGTTSYADSVKGRFTISRDNAKNTVYLQMNSLKPEDTARYTCHARRGGTLYTLGDSNYWGQGTQVTVSS | binds
17 | 132-B12 (VHH, not shown: C-terminal c-myc tag and (His)6 tag coded by the vector) VHH: EVQLVESGGGLVQAGGSLRLSCAASGNTFSINVMGWYRQAPGKQRELVTIMDDSGTTNYAGSVKGRFTISRDNAKNTVYLQMSSLKPEDTARYFCHARRGGTAYTLGDSNYWGQGTQVTVSS | binds
18 | 132-F12 (VHH, not shown: C-terminal c-myc tag and (His)6 tag coded by the vector) VHH: EVQLVESGGGLVQAGGSLRLSCAASGNTFSFNVMGWYRQAPGNQRELVTIIDNSGTTNYADSVKGRFTVSRDNAKNTVYLQMNSLKPEDTARYYCHARRGGGLYILGESNYWGQGTQVTVSS | binds
19 | 132-G9 (VHH, not shown: C-terminal c-myc tag and (His)6 tag coded by the vector) VHH: EVQLVESGGGLVQTGGSLRLSCAASGNTFNFNVMGWYRQAPGKQRELVTIIDNSGTTNYADSVKGRFTISRDNAKNTVYLQMNSLKPEDTARYFCHARRGGSLYTLGDSNYWGQGTQVTVSS | binds

Each binder was assayed against T3, recombinant murine TLR3, R&D Systems cat no: 3005-TR (murine, UniProt Q99MB1 26-705, limits assumed) in the same assay as above.
T3 construct: Bought protein, coated on ELISA plates; also called mTLR3
T3 sequence (Q99MB1 26-705 limits assumed): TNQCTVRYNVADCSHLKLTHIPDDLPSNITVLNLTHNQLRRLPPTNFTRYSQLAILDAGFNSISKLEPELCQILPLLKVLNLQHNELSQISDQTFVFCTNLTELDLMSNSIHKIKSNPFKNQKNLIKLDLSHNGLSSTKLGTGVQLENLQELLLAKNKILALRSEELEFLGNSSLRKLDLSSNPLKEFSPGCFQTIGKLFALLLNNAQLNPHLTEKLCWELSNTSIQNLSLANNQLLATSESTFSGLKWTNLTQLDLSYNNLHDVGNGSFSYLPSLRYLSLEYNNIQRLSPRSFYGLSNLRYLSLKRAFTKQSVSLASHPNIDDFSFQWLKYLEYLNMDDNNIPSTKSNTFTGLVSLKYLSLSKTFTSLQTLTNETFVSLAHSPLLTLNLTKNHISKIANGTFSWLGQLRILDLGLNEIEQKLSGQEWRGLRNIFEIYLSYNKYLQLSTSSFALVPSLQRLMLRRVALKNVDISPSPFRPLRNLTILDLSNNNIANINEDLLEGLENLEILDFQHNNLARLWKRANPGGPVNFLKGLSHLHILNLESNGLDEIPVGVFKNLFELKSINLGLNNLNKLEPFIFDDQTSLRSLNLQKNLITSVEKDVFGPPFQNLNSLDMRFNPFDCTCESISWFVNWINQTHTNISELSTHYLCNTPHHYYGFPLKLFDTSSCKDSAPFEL

Row | Binder | binding result
20 | 132-G5 (VHH, not shown: C-terminal c-myc tag and (His)6 tag coded by the vector) VHH: EVQLVESGGGLVQPGGSLRLSCAASGSILSIHYMGWFRQAPGKQRELVAGIPTGGTTNYADSVKGRFTMSRDNAKNTVDLQMNTMKPEDTAVYYCNAWISSERESRWLNYWGQGTQVTVSS | binds
21 | 132-D3 (VHH, not shown: C-terminal c-myc tag and (His)6 tag coded by the vector) VHH: VQLVESGGGLVQAGGSLRLSCVASGTSFSVGAAGWYRQAPGKQRDLVAEIYPSGSTIYADSVKGRFTISRDNAKNTVYLQMNALKPEDTAVYYCNVVRWGVDYWGQGTQVTVSS | binds
22 | 132-B3 (VHH, not shown: C-terminal c-myc tag and (His)6 tag coded by the vector) VHH: EVQLVESGGGLVQAGGSLRLSCVASGSPFSIGATGWYRQAPGKQRDLVAEIYPSGDTIYADSVKGRSTISRDNAKNTVYLQMNSLKPEDTAVYFCNVVRWGVDYWGQGTQVTVSS | binds
23 | 132-H4 (VHH, not shown: C-terminal c-myc tag and (His)6 tag coded by the vector) VHH: EVQLVESGGGLVQAGGSLRLSCVASGTSIMVGAMGWYRQAPGKQRDLVAEIYPSGSTIYEDSVKGRFTISRDNAKNTVYLQMNSLKPEDTAVYYCNVLRWGVDYWGQGTQVTVSS | binds
24 | 132-D1 (VHH, not shown: C-terminal c-myc tag and (His)6 tag coded by the vector) VHH: EVQLVESGGGLVQAGGSLRLSCVASGTSFSIGAAGWYRQAPGKQRDLLAEIYPSGSTIYADSVKGRFTISRDNAKNTVYLQMNALKPEDTAVYYCNAVRWGVDYWGQGTQVTVSS | binds
25 | 132-E5 (VHH, not shown: C-terminal c-myc tag and (His)6 tag coded by the vector) VHH: EVQLVESGGGLVQAGGSLRLSCVVSGSSFSVGAAGWYRQAPGKQRDLVAEIYPSGSTSYADSVKGRFTISRDNAKNIMYLQMNALKLEDTAVYYCNVVRWGVDYWGQGTQVTVSS | binds
26 | 132-B1 (VHH, not shown: C-terminal c-myc tag and (His)6 tag coded by the vector) VHH: EVQLVESGGGLVQAGGSLRLSCVASGSPFSIGATGWYRQAPGKQRDLVAEIYPSGDTIYADSVKGRSTISRDNAKNTVYLQMNSMKPEDTAVYFCNVVRWGVDYWGQGTQVTVSS | binds
27 | 132-B5 (VHH, not shown: C-terminal c-myc tag and (His)6 tag coded by the vector) VHH: EVQLVESGGGLVQAGGSLRLSCVASGLVSSYYGMGWFRQAPGKEREFVASVNWSGKDTYYGDSVKGRFAVSRDSGKNTGFLQMNSLKSEDTAVYYCARRRGGGTGTGNPSEYDYWGQGTQVTVSS | binds
